This is an account of results in patent US20090029376.

Numbering of substitutions follows the chain as printed.

What all share (assay): cleavage_in_vitro
Series [1] deals with T1, BamHI (Bacillus amyloliquefaciens) (UniProt P23940).
T1 sequence: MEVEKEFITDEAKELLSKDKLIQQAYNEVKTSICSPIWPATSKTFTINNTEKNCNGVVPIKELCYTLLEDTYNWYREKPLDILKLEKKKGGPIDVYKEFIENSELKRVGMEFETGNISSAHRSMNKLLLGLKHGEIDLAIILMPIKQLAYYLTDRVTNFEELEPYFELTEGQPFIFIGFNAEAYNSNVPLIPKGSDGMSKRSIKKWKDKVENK
The following applies: NEB4, 37 C.

The target of series [2] is T2, BamHI(E86P) E86P (Bacillus amyloliquefaciens) (UniProt P23940).
T2 sequence: T1 sequence with E86P
The settings on record: NEB4, 37 C.

Series [3] concerns T3, BstXI (Bacillus stearothermophilus).
T3 sequence: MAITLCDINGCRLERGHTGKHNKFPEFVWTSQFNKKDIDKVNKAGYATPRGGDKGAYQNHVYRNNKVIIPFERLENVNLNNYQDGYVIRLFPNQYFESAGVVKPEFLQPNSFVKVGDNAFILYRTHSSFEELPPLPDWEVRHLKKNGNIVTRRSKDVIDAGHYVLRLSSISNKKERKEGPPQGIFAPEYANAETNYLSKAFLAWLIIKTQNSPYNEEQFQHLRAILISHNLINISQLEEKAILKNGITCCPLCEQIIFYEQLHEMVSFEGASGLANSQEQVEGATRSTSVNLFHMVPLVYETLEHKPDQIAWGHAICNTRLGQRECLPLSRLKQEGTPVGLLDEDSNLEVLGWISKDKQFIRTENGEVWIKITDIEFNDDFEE
The settings on record: NEB4, 55 C; Table 2 prints 4.

Series [4] deals with EcoRI(K62A) K62A (Escherichia coli RY13) (UniProt P00642). The settings on record: NEB4, 37 C.
Series [5] deals with T4, HindIII (Haemophilus influenzae Rd) (UniProt P43870).
T4 sequence: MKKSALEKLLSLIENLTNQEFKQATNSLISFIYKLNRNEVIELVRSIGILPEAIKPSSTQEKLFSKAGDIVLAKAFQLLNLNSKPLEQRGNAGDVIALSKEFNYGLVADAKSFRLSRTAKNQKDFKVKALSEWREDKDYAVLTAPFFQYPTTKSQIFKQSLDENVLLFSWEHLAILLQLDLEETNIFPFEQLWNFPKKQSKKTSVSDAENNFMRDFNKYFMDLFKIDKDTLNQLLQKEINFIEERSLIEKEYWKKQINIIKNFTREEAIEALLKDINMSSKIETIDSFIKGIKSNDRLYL
The following applies: NEB4, 37 C.

Series [6] deals with T5, HpaI (Haemophilus parainfluenzae) (UniProt P29537).
T5 sequence: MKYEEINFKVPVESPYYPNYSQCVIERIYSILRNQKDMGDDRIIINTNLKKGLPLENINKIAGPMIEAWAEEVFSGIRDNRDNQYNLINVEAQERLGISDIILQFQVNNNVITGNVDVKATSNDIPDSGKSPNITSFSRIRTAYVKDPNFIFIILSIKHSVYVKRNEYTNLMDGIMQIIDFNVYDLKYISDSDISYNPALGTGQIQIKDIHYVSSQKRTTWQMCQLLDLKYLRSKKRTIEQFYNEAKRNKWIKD
The settings on record: NEB4, 37 C.

Series [7] deals with T6, PstI-HF D91A (Providencia stuartii 164) (UniProt P00640).
T6 sequence: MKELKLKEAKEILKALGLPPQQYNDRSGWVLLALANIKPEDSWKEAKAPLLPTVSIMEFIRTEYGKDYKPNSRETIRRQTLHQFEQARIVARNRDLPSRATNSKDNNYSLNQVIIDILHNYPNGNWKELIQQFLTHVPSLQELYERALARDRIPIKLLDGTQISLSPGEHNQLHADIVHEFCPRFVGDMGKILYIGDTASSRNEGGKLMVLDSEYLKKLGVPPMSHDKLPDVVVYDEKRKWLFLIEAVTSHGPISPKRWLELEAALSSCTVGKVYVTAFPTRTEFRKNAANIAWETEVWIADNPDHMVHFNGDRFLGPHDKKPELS
The following applies: NEB4, 37 C.

Series [8] concerns T7, SbfI-HF K251A (Streptomyces species Bf-6).
T7 sequence: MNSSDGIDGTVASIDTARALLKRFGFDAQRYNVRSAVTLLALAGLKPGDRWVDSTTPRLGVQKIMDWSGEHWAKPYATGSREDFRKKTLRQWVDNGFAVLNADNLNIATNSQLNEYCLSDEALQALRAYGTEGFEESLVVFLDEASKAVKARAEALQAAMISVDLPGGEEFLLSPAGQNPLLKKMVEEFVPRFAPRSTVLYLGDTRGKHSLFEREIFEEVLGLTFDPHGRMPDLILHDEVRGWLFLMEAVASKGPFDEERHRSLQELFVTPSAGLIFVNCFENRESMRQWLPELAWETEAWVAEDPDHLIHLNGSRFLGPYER
The settings on record: NEB4, 37 C.

Series [9] concerns T8, SphI (Streptomyces phaeochromogenes).
T8 sequence: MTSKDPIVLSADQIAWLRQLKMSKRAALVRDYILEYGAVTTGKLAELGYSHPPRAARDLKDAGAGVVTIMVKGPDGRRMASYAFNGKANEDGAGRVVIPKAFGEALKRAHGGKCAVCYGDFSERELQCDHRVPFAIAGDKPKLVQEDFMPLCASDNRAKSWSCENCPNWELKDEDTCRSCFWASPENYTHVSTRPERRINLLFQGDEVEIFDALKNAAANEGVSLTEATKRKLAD
The settings on record: NEB4, 37 C.

Series [10] has as its system T9, SspI (Sphaerotilus species).
T9 sequence: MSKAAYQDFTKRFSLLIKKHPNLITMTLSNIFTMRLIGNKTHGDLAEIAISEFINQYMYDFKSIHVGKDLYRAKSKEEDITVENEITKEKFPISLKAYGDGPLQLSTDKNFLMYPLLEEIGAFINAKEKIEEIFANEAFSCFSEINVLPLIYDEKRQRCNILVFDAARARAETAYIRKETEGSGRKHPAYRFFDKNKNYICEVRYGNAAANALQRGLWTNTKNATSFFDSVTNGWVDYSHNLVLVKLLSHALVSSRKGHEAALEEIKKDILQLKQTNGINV
The following applies: NEB4, 37 C.

Take lambda phage DNA: the activity (fidelity index) was 4 in [1]; greater than 4000 in series [2]; 32 in [3]; 32000 in series [4]; 32 in [5]; 16 in series [6]. Moreover, the activity (fidelity index) in [7] was greater than 2000; in [8], 250; in series [9], 16; in series [10], 16.
